Results on two molecules are retold here after PMC7904744, “Poly(ADP-ribosyl)ation enhances HuR oligomerization and contributes to pro-inflammatory gene mRNA stabilization”.

What all share (conditions): protein: recombinant; tags: GST; label: 5' biotin
In one data set the target is GST-HuR (UniProt Q15717 1-326). Kind of data set: EMSA; unmodified; multiple shifted bands (oligomer); EMSA: 3 mM MgCl2, 40 mM KCl, 5% glycerol, 2 mM DTT, 2 ug tRNA, 5 nM RNA, 40 min room temperature; pH not stated; 6% native acrylamide gel.
For data set [1], the target named is T1, GST-HuR-RRM1 (UniProt Q15717 20-98). Kind of data set: EMSA; no multiple shifted bands (Fig 4d); EMSA: 3 mM MgCl2, 40 mM KCl, 5% glycerol, 2 mM DTT, 2 ug tRNA, 5 nM RNA, 40 min room temperature; pH not stated; 6% native acrylamide gel.
Data set [2] deals with T1, GST-HuR-RRM1. Kind of data set: EMSA; EMSA: 3 mM MgCl2, 40 mM KCl, 5% glycerol, 2 mM DTT, 2 ug tRNA, 5 nM RNA, 40 min room temperature; pH not stated; 6% native acrylamide gel.

Chain of GST-HuR (Q15717 whole entry): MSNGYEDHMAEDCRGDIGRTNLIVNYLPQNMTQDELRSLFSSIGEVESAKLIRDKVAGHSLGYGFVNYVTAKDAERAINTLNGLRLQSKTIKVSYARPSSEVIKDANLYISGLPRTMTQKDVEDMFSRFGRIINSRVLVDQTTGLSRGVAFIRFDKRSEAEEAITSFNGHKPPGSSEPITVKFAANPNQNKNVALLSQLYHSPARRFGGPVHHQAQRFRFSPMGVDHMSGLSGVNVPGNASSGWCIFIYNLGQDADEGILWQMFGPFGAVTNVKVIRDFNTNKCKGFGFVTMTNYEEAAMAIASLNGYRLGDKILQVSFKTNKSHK
T1 sequence (Q15717 20-98): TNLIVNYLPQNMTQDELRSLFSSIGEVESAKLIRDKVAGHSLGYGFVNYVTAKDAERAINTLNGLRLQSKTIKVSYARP

Regarding CUAUGUAUUUAUUUAUUUAUUAAUU (ssRNA) [Cxcl2 ARE RNA oligo], the binding result with GST-HuR and in the data set with GST-HuR-RRM1 [1] was “binds” each time.
As to AUUUAUUUAUUUAUUUAUUUAUUUA (ssRNA) [AU-rich RNA oligo (tandem ARE repeat)], the binding result with GST-HuR and with GST-HuR-RRM1 [2] was “binds” in each case.
